Test results reported in PMC6292858.

Molecular target: DREP2 CIDE domain (amino acids 1–84), wild-type (Drosophila melanogaster)
Experiment: SEC-MALS; self-association; Superdex 200 HR 10/30 coupled to three-angle light scattering and refractive index detectors, 0.2 mL/min; wild type measured in 50 mM NaCl and in 1 M NaCl

stoichiometry N: 16 to 18 molecules
Substance: DREP2 CIDE domain (amino acids 1–84), wild-type (domain or fragment)
